Data reported in article doi:10.1101/266718 (bioRxiv, 2018).

Biological target: T1, Dcp1:Dcp2(1-504) (S. pombe, UniProt Q9P805 1-127; O13828 1-504)
T1 sequence (looked up) 1: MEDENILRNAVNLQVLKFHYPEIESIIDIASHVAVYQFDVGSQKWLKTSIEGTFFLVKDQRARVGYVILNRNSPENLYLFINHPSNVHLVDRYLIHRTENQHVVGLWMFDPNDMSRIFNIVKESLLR
T1 sequence (looked up) 2: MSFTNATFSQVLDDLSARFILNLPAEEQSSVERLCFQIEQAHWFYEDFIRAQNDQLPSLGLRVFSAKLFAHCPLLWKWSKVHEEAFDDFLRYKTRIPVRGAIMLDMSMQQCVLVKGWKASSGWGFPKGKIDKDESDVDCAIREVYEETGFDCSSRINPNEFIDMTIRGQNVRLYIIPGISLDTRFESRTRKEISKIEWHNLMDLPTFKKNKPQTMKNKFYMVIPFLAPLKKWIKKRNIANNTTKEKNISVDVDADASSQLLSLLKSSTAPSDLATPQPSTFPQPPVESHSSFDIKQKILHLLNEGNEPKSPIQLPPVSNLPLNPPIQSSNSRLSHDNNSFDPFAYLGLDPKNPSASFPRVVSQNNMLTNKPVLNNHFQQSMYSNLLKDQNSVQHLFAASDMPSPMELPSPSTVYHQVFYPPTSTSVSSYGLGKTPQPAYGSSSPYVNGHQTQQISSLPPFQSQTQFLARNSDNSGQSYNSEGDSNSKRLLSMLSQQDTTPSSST
Assay: cell-based or functional assay

B1: Edc3 (natural protein, S. pombe, UniProt O94752 1-454, looked up)
chain: MSVADFYGSNVEVLLNNDSKARGVITNFDSSNSILQLRLANDSTKSIVTKDIKDLRILPKNEIMPKNGTKSPSTNSTKLKSAETYSSKNKWSMDCDEEFDFAANLEKFDKKQVFAEFREKDKKDPAKLLVSHNKSPNRNYHHKQNVLGPSVKDEFVDLPSAGSQINGIDAVLSSSSNGHVTPGSKKGSRETLKKKPFVDENIPAELHTTTGDILKPITPEQLSQGIALAIAKTSTDIVVENAAQLLSQFVFSVLGGHKRLSSRNHNSQPLVCILVGSHDHASAAVAAGRRLCAIGIKVVLRLLTPFNVDNRQLLMFQAAGGYIPTENFDQFLNKLTSPIELVVDVLTGFHPSIDKNSHALIQWANDLNVLILSVDIPSGYTVQKKNTAILPKWTLALGAVTTTLAQAALVKQAAGVSVFVGNLGTGSQTWAELGILESQVTGQYLAQISCTSTN
B1 was tested, and the “stimulation of the decapping rate of Dcp1:Dcp2ext by excess Edc3” value was 30 fold.
